Assay results from patent US20240067734A1 (Hoffmann-La Roche, published 2024).
Where two headings read alike, the source gives them in different places.

How the values were obtained:
[1] = target: T1, human NKG2D expressed on cells (human, UniProt P26718 1-216); experiment: flow cytometry on NK92 cells, PE anti-human Fc secondary antibody
T1 construct: the cell type is named under assay; also called NKG2D on NK92 cells; HEK293T human NKG2D
T1 chain: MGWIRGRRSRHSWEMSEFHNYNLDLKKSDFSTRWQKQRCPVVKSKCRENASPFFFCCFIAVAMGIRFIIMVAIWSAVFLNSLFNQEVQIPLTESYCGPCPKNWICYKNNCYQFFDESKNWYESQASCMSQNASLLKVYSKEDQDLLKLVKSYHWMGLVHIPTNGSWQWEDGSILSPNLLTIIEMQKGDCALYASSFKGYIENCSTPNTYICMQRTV
Protocol: The anti-NKG2D antibodies P1AE4980, C26 and ADI27743 from Example 21 were tested for binding to NKG2D on NK92 cells.
Viability of NK92 cells was checked and cells were re-suspended and adjusted to a density of 1.5 mio cells/ml. 100 μl of this cell suspension (containing 0.15 mio cells) were seeded into a 96 well round bottom plate. The plate was centrifuged for 4 min at 400×g and the supernatant was removed. Then 40 μl of the diluted antibodies or FACS buffer were added to the cells and incubated for 30 min at 4° C. After the incubation the cells were washed twice with 150 μl FACS buffer per well. […] The cells were incubated for an additional 30 min at 4° C. To remove unbound antibody the cells were washed again twice with 150 μl per well FACS buffer. For the measurement, the cells were re-suspended in 150 μl FACS buffer. The fluorescence was measured using a BD flow cytometer.

[2] = target: T1, human NKG2D expressed on cells; experiment: flow cytometry on NKG2D-positive NK92 cells, anti-human Fc secondary antibody
[3] = target: T2, CEA expressed on LS180 tumor cells (human, UniProt P06731 35-685); experiment: flow cytometry on CEA-positive LS180 cells, anti-human Fc secondary antibody
T2 construct: whole, on cells; also called carcinoembryonic antigen; CEACAM5
T2 sequence (looked up): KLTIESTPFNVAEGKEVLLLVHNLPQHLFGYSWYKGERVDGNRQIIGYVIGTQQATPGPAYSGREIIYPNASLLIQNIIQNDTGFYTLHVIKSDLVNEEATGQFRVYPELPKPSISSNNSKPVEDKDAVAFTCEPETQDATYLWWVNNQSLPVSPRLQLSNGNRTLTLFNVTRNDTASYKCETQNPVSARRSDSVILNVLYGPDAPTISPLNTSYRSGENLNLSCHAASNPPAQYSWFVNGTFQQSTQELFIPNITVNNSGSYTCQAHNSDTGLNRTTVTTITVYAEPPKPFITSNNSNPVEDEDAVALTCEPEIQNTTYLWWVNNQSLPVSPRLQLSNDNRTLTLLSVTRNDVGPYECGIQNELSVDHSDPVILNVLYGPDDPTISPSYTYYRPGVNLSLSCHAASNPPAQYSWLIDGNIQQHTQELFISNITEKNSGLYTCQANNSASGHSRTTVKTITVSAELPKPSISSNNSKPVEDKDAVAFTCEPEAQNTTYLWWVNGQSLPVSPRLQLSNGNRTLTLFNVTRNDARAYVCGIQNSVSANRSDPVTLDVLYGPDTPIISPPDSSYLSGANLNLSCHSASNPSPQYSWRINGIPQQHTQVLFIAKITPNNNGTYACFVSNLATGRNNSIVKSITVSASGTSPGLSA
Protocol: (§1) Viability of NK92 cells or tumor cells (MKN-45, LS180) was checked and cells were re-suspended and adjusted to a density of 1 mio cells/ml. 100 μl per well of this cell suspension (containing 0.1 mio cells) were seeded into a 96 well round bottom plate. The plate was centrifuged for 4 min at 400×g and the supernatant was removed. Then 40 μl of the diluted antibodies or FACS buffer were added to the cells and incubated for 30 min at 4° C. After the incubation the cells were washed twice with 150 μl FACS buffer per well. […] The cells were incubated for an additional 30 min at 4° C. To remove unbound antibody, the cells were washed again twice with 150 μl per well FACS buffer. To fix the cells, 100 μl of FACS buffer containing 1% PFA were added to the wells. Before measuring, the cells were re-suspended in 150 μl FACS buffer. The fluorescence was measured using a BD flow cytometer.

[4] = target: T1, human NKG2D expressed on cells; experiment: flow cytometry on NKG2D-positive NK92 cells, anti-human Fc secondary antibody
Protocol: as §1

[5] = target: T2, CEA expressed on LS180 tumor cells; experiment: flow cytometry on CEA-positive LS180 cells, anti-human Fc secondary antibody; remark: listed apart in the source
Protocol: as §1

[6] = target: T1, human NKG2D expressed on cells; experiment: flow cytometry on NK92 cells, PE anti-human Fc secondary antibody

B1: anti-NKG2D antibody P1AE4980 (IgG) (antibody, V domains shown)
VH: QEQLVQSGAEVKKPGESLKISCKGSGFDFNTFWMTWVRQMPGKGLEWMGSIHGGSGSRDYSPSFQGQVTISADIDQSTAYLQWSSLKASDTAMYYCARPGYRSWSKTFDLWGQGTTVTVSS
VL: DIQMTQSPSSLSASVGDRVTITCRASQDISGALNWYQQKPGKAPNLLIYAASSLQSGVPSRFSGSGSGTDYTLTISSLQPEDFATYYCQQANSFPLTFGGGTKVEIK
notes: Tested as IgG beside C26 and ADI27743 (human IgG1 PGLALA)
binding result [1]: binds

B2: NKG2D×CEA bispecific antibody, anti-NKG2D 320 / anti-CEA B9, J format (bispecific antibody, V domains shown)
VH 1: EVQLLESGGGLVQPGGSLRLSCATSGFTFSDYAMSWVRQAPGKGLEWVSYNSFSVGSTDYADSVKGRFTISRDNSKNTLYLQMNSLRAEDTAVYYCSKHSGNYYTGPFHYWGQGTLVTVSS
VL 1: DIQLTQSPSFLSASVGDRVTITCRASQGISSYLAWYQQKPGKAPKLLIYAASSLESGVPSRFSGSGSGTDFTLTISSLQPEDFATYYCQQSYSTPITFGQGTRLEIK
VH 2: VQLVESGGGLVQPGRSLRLSCAASGFTVSSYWMHWVRQAPGKGLEWVGFIRNKANGGTTEYAASVKGRFTISRDDSKNTLYLQMNSLRAEDTAVYYCARDRGLRFYFDYWGQGTTVTVSS
VL 2: QAVLTQPASLSASPGASASLTCTLRRGINVGAYSIYWYQQKPGSPPQYLLRYKSDSDKQQGSGVSSRFSASKDASANAGILLISGLQSEDEADYYCMIWHSGASAVFGGGTKLTVL
notes: also called format J (320); tetravalent construct J
EC50 (read off the curve) [2]: ~6 nM

B3: NKG2D×CEA bispecific antibody, anti-NKG2D 320 / anti-CEA B9, L format (bispecific antibody, V domains shown)
VH 1: EVQLLESGGGLVQPGGSLRLSCATSGFTFSDYAMSWVRQAPGKGLEWVSYNSFSVGSTDYADSVKGRFTISRDNSKNTLYLQMNSLRAEDTAVYYCSKHSGNYYTGPFHYWGQGTLVTVSS
VL 1: DIQLTQSPSFLSASVGDRVTITCRASQGISSYLAWYQQKPGKAPKLLIYAASSLESGVPSRFSGSGSGTDFTLTISSLQPEDFATYYCQQSYSTPITFGQGTRLEIK
VH 2: VQLVESGGGLVQPGRSLRLSCAASGFTVSSYWMHWVRQAPGKGLEWVGFIRNKANGGTTEYAASVKGRFTISRDDSKNTLYLQMNSLRAEDTAVYYCARDRGLRFYFDYWGQGTTVTVSS
VL 2: QAVLTQPASLSASPGASASLTCTLRRGINVGAYSIYWYQQKPGSPPQYLLRYKSDSDKQQGSGVSSRFSASKDASANAGILLISGLQSEDEADYYCMIWHSGASAVFGGGTKLTVL
notes: also called format L (320)
EC50 (read off the curve) [3]: ~10 nM

B4: NKG2D×CEA bispecific antibody, anti-NKG2D 395 (C50S) / anti-CEA B9, I format (bispecific antibody, V domains shown)
VH 1: QEQLEQSGGGLVTPGGSLKLCCTASGFDFNTFWMTWVRQAPGKGLEWIGSIHGGSGSRDYASWVNGRFTLSRDIDQSTACLQVNSLTAADTAMYYCARPGYRSWSKTFDLWGQGTMVTVSS
VL 1: DIQMTQSPSSLSASVGDRVTITCRASQDISGALNWYQQKPGKAPNLLIYAASSLQSGVPSRFSGSGSGTDYTLTISSLQPEDFATYYCQQANSFPLTFGGGTKVEIK
VH 2: VQLVESGGGLVQPGRSLRLSCAASGFTVSSYWMHWVRQAPGKGLEWVGFIRNKANGGTTEYAASVKGRFTISRDDSKNTLYLQMNSLRAEDTAVYYCARDRGLRFYFDYWGQGTTVTVSS
VL 2: QAVLTQPASLSASPGASASLTCTLRRGINVGAYSIYWYQQKPGSPPQYLLRYKSDSDKQQGSGVSSRFSASKDASANAGILLISGLQSEDEADYYCMIWHSGASAVFGGGTKLTVL
notes: also called bivalent I format
EC50 (read off the curve) [4]: ~2 nM

B5: NKG2D×CEA bispecific antibody, anti-NKG2D 320 / anti-CEA B9, I format (bispecific antibody, V domains shown)
VH 1: EVQLLESGGGLVQPGGSLRLSCATSGFTFSDYAMSWVRQAPGKGLEWVSYNSFSVGSTDYADSVKGRFTISRDNSKNTLYLQMNSLRAEDTAVYYCSKHSGNYYTGPFHYWGQGTLVTVSS
VL 1: DIQLTQSPSFLSASVGDRVTITCRASQGISSYLAWYQQKPGKAPKLLIYAASSLESGVPSRFSGSGSGTDFTLTISSLQPEDFATYYCQQSYSTPITFGQGTRLEIK
VH 2: VQLVESGGGLVQPGRSLRLSCAASGFTVSSYWMHWVRQAPGKGLEWVGFIRNKANGGTTEYAASVKGRFTISRDDSKNTLYLQMNSLRAEDTAVYYCARDRGLRFYFDYWGQGTTVTVSS
VL 2: QAVLTQPASLSASPGASASLTCTLRRGINVGAYSIYWYQQKPGSPPQYLLRYKSDSDKQQGSGVSSRFSASKDASANAGILLISGLQSEDEADYYCMIWHSGASAVFGGGTKLTVL
notes: also called format I (320); I format with antibody 320
EC50 (read off the curve) [2]: ~10 nM

B6: anti-CEA antibody B9 (IgG) (antibody, V domains shown)
VH: VQLVESGGGLVQPGRSLRLSCAASGFTVSSYWMHWVRQAPGKGLEWVGFIRNKANGGTTEYAASVKGRFTISRDDSKNTLYLQMNSLRAEDTAVYYCARDRGLRFYFDYWGQGTTVTVSS
VL: QAVLTQPASLSASPGASASLTCTLRRGINVGAYSIYWYQQKPGSPPQYLLRYKSDSDKQQGSGVSSRFSASKDASANAGILLISGLQSEDEADYYCMIWHSGASAVFGGGTKLTVL
notes: IgG
EC50 (read off the curve) [3]: ~2 nM
EC50 (read off the curve) [5]: ~2 nM

B7: bispecific NKG2D×CEA antibody in M format, ADI27743 / huA5B7 (bispecific antibody, human IgG1, kappa, L234A L235A)
heavy 1: not shown
light 1: QVQLQQWGAGLLKPSETLSLTCAVYGGSFSGYYWSWIRQPPGKGLEWIGEIDHSGSTNYNPSLKSRVTISVDTSKNQFSLKLSSVTAADTAVYYCARARGPWSFDPWGQGTLVTVSSASVAAPSVFIFPPSDEQLKSGTASVVCLLNNFYPREAKVQWKVDNALQSGNSQESVTEQDSKDSTYSLSSTLTLSKADYEKHKVYACEVTHQGLSSPVTKSFNRGEC
heavy 2: not shown
light 2: EIVLTQSPATLSLSPGERATLSCRASSSVTYIHWYQQKPGQAPRSWIYATSNLASGIPARFSGSGSGTDFTLTISSLEPEDFAVYYCQHWSSKPPTFGQGTKLEIKRTVAAPSVFIFPPSDRKLKSGTASVVCLLNNFYPREAKVQWKVDNALQSGNSQESVTEQDSKDSTYSLSSTLTLSKADYEKHKVYACEVTHQGLSSPVTKSFNRGEC
notes: also called ADI27743 bispecific
binding result [6]: binds

B8: anti-NKG2D antibody C26 IgG (PG LALA) (antibody, V domains shown)
VH: QVQLQQWGAGLLKPSETLSLTCAVYGGSFSGYYWSWIRQPPGKGLEWIGEIDHSGSTNYNPSLKSRVTISVDTSKNQFSLKLSSVTAADTAVYYCARARGPWSFDPWGQGTLVTVSS
VL: DIQMTQSPSTLSASVGDRVTITCRASQSISSWLAWYQQKPGKAPKLLIYKASSLESGVPSRFSGSGSGTEFTLTISSLQPDDFATYYCQQYGSFPITFGGGTKVEIKR
notes: Human IgG1 with PGLALA; variable domains from WO 2018/148445
binding result [1]: binds

B9: anti-NKG2D antibody ADI27743 IgG (PG LALA) (antibody, V domains shown)
VH: QVQLQQWGAGLLKPSETLSLTCAVYGGSFSGYYWSWIRQPPGKGLEWIGEIDHSGSTNYNPSLKSRVTISVDTSKNQFSLKLSSVTAADTAVYYCARARGPWSFDPWGQGTLVTVSS
VL: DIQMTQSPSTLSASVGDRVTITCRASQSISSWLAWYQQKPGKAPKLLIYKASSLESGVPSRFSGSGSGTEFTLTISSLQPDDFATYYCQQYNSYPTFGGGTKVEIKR
notes: as for B8
binding result [1]: binds
